13 molecules from US20240101645A1 (HENRY M JACKSON FOUNDATION FOR THE ADVANCEMENT OF MILITARY …, published 2024) can be followed below.

T1: HCoV-HKU1 spike antigens (bead panel) (HCoV-HKU1, UniProt Q5MQD0 13-1300)
T1 sequence: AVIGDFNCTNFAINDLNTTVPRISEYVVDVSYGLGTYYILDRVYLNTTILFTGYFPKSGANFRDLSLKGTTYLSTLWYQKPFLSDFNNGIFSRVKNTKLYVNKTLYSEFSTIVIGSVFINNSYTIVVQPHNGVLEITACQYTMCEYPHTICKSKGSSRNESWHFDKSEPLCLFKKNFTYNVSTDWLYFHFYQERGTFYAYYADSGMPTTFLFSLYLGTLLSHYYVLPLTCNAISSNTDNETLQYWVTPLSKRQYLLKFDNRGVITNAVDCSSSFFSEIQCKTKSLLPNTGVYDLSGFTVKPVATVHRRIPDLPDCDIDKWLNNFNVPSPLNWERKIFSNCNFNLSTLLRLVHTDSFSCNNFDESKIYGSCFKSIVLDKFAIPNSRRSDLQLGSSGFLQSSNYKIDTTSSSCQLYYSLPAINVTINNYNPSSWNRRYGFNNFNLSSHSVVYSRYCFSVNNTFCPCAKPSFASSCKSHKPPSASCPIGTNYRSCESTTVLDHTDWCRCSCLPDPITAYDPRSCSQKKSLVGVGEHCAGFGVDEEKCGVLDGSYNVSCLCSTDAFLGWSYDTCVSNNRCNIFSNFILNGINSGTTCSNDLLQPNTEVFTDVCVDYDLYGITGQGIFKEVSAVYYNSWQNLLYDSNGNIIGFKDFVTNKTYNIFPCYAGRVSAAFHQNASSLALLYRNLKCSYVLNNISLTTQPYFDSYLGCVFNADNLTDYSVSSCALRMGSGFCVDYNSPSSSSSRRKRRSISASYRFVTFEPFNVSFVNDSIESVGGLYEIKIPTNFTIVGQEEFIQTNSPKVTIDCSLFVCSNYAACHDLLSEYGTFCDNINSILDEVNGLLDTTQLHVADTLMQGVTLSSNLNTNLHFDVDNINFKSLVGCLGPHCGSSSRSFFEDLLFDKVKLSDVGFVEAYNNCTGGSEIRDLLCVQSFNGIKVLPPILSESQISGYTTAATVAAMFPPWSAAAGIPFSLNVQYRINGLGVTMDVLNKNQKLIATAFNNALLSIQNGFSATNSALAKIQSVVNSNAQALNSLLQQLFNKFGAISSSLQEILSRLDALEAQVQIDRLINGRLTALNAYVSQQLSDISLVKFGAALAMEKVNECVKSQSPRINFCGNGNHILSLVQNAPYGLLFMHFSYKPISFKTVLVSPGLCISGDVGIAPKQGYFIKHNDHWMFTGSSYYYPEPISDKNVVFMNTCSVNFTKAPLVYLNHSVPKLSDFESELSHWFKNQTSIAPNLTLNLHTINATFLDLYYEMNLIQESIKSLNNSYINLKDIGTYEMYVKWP

T2: HCoV-229E spike antigens (bead panel) (HCoV-229E, UniProt P15423 16-1115)
T2 sequence: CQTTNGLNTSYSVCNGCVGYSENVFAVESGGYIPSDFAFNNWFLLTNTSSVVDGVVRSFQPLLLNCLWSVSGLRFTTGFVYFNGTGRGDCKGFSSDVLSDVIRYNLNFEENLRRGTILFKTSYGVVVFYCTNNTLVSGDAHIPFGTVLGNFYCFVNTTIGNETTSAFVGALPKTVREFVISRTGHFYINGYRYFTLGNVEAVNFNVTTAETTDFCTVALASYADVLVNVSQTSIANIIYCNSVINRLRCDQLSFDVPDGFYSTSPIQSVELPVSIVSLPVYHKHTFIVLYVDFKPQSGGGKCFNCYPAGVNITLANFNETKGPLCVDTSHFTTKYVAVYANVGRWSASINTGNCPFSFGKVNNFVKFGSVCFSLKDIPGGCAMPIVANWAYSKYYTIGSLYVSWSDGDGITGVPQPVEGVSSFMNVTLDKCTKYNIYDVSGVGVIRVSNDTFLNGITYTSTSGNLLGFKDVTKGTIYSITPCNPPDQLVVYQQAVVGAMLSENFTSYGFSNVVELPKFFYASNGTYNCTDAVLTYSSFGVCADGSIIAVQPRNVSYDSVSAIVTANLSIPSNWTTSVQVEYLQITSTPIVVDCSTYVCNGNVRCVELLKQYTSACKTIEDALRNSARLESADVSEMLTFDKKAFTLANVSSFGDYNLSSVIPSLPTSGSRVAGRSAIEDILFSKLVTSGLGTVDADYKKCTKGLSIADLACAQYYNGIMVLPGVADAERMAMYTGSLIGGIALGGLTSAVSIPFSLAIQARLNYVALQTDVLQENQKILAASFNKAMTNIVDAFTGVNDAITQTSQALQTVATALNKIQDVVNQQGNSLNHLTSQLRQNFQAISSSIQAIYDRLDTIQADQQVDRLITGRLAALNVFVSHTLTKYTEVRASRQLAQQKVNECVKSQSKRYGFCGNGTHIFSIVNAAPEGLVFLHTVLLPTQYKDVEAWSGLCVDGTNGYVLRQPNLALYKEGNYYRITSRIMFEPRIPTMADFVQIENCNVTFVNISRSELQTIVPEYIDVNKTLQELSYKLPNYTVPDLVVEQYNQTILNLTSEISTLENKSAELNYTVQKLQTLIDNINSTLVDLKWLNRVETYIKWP

B1: COV_2100 (antibody, V domains shown)
VH: EVQLVESGGGLVQPGGSLRLSCAASGFTFSSYDMYWVRQATGKGLEWVSAIGTAGDTYYPGSVKGRFTISRENAKNSLYLRMNSLRAGDTAVYFCARADKNTAMFFDYWGQGTLVTVSS
VL: DIQMTQSPSSLSASVGDRVTITCRASQNINNFLHWYQQKPGNAPKLLIYAASTLQSGVPSRFSGSGSGTDFTLTISSLQPEDFATYYCQQSYSTPGGTFGGGTKVEIK
notes: human IgG1
B2: COV_1118 (antibody, V domains shown)
VH: EVQLVESGGGLVKPGGSLRLSCAASGFSFSNYNMNWVRQAPGKGLEWVSYISSSSSYIYYADSVKGRFTISRDNAKNSLYLQMNSLRGEDTAVYSCAREASGAYYFDRSGYFDYWGQGTLVTVSP
VL: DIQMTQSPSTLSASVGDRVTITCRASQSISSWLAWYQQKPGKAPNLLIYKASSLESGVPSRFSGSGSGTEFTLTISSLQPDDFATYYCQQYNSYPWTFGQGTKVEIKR
notes: human IgG1
B3: COV_1136 (antibody, V domains shown)
VH: B2 VH with S28T, N31D, Y32C, Y50S, S54R, G88A
VL: DIQMTQSPSTLSASVGDRVTITCRASQSISSWLAWYQQKPGKAPNLLIYKASSLESGVPSRFSGSGSGTEFTLTISSLQPDDFATYYCQQYNTYPWTFGQGTKVEIKR
notes: human IgG1
B4: COV_2103 (antibody, V domains shown)
VH: EVQLVESGGGVVQPGRSLRLSCGASGFTFSSYGIHWVRQAPGKGLDWVAVIWHDGSQKYYGDSVKGRFTISRDNSKNTLYLQMNRLRAEDTAVYYCARDSGDDYDSSGYPIGNAFDLWGQGTMVTVSS
VL: DIQMTQSPSTLSASVGDRVTITCRASQFINSWLAWYQQKPGKAPKLLIYKASSLETGVPSRFSGSGSGTEFTLTISSLQPDDFATYYCQQYNTYSFTFGPGTKVDIK
notes: human IgG1
B5: COV_2196 (antibody, V domains shown)
VH: QVQLVQSGAEVKKPGASVKVSCKVSGYTLIELSMHWVRQAPGKGLEWMGGFDPEDAKTIYAQKFQGRVTMTEDTSTDTAYMELSSLTFEDTAVYYCATTPAFMAAAGDFDYWGQGTLVTVSS
VL: QPVLTQPSSVSVSPGQTATITCSGDVLAKKYARWFQQKPGQAPMLVIYKDTERPSGIPERFSGSSSGTTVTLTINGAQVEDEADYYCYSAAAWVFGGGTKLTVL
notes: human IgG1
B6: COV_2137 (antibody, V domains shown)
VH: EVQLVESGGGLVKPGGSLRLSCAASGFTFSSYTMNWVRQAPGKGLEWVSSISSGSSFIYYADSLRGRFTISRDNAKNSLYLQMNSLRAEDTAVYYCARAPEPQSVIYAYWYFDLWGRGTLVTVSS
VL: QSALTQPASVSGSPGQSITFSCTGTSSDVGSYNLVSWYQQYPGKAPKLMIYEVNKRPSGVSNRFSGSKSGNTASLTISGLQAEDEADYYCCSYAGSSTFYVFGTGTKVTVLG
notes: human IgG1
B7: COV_1025 (antibody, V domains shown)
VH: QVQLVESGGGVVQPGRSLRLSCAASGFTFNTYAMHWVRQAPGKGLEWVAIISYDGGNKYYADSMKGRFTISRDNSKNTLYLQMNSLRAEDTAVYYCARARTGNYYYGMDVWGQGTTVTVSS
VL: not shown
notes: human IgG1
B8: COV_1050 (antibody, V domains shown)
VH: QVQLVESGGGVVQPGRSLRLSCAASRFTFSSYAMHWVRQAPGKGLEWVAVISFDGSNKYYADSVKGRFTIFRDNSKNTLSLQMNSLRTEDTAMYYCASPAGYYESLWGQGTLVTVSS
VL: SYELTQPPSVSVSPGQTARVTCSGDALSKQYGFWYQQKPGQAPTLVIYKDTERPSGIPERFSGSGSGTTVTLTISGVQAEDEADYYCQSTDNSGRWVFGGGTKLTVLG
notes: human IgG1
B9: COV_2057 (antibody, V domains shown)
VH: EVQLVQSGAEVKKPGESLKISCKGSGYSFISYWIAWVRQMPGKGLEWMGIIYPGDSDTTYSPSFQGQVTISADKSISTAYLQWSSLKASDTAIYYCARLLYYSDSSPLDSWGQGTLVTVSS
VL: DIQMTQSPSSLSASVGDRVTITCRASQSISTYLNWYQQKPGKAPNLLIYAASSLQSGVPSRFSGSGSGTDFTLTISSLQPEDFATYYCQQSHSTPRTFGPGTKVDIK
notes: human IgG1
B10: COV_2193 (antibody, V domains shown)
VH: QVQLVQSGAEVKKPGASVKVSCKVSGYTLTDLSMHWVRQTPGKGLEWMGGFDAEDGETIYAQNFQGRVTMTEDTSIDVAYMELSSLRSEDTAVYYCATGSVGPDYWGQGTLVTVSS
VL: SSELTQDPAVSVALGQTVRITCQGDSLRSYYASWFQQKPGQAPVLVIYLKNDRPSGIPDRFSGSSSGNTASLTITGAQAEDEADYYCNSRDSSGNHQVFGGGTKLTVL
notes: human IgG1
B11: COV_3053 (antibody, V domains shown)
VH: EVQLVESGGGLVQPGRSLRLSCTASGFTLGDYAMTWVRQAPGKGLEWLGIIRNKRYGETKQYAASVKGRFTFSRDDSKGIGYLQRLSLKIEDTGVYYCTREHIVRDDAFDVWGQGTTVTVSS
VL: DIVMTQSPDSLAVSLGERATINCKSSQSVLYSSNNKNYIAWYQQRPGQPPKLLIYWTSTRASGVPDRFSGSGSGTDFALTISSLQAEDVAVYYCQQYYTIPRTFGQGTKVEIK
notes: human IgG1
B12: COV_3088 (antibody, V domains shown)
VH: EVQLVESGGGLVQPGGSLRLSCAASGFTFSSYDMHWVRQATGKGLEWVSAIGTAGDTYYPGSVKGRFTISRENAKNSLYLQMNSLRAGDTAVYYCARGSGWPPFFDYWGQGTLVTVSS
VL: SYELTQPPSVSVAPGKTARITCGGNNIGSKSVHWYQQKPGQAPVLVIYYDSDRPSGIPERFSGSNSGNTATLTISRVEAGDEADYYCQVWDSSSDHHWVFGGGTKLTVL
notes: human IgG1
B13: COV_2134 (antibody, V domains shown)
VH: EVQLVESGGGVVQPGRSLRLSCAASGFIFSSYGMYWVRQAPGKGLEWVAVIWYDGSNKYYADSVKGRFTISRDNSKNTLYLQMNSLRAEDTAVYYCARDLSSSSGWDDYYYYYGMDVWGQGTTVTVSS
VL: not shown
notes: human IgG1

Positions count from the first letter of the chain named.

In the first experiment the target is T1, HCoV-HKU1 spike antigens (bead panel). In words: multiplex bead assay.
Consider B1, for which the binding result is given as “no binding”.
As to B2, the binding result is “no binding”.
Consider B3, for which the binding result is reported as “no binding”.
As to B4, the binding result was “no binding”.
Take B5: the binding result was “no binding”.
For the molecule B6, the binding result was “no binding”.
Take B7: the binding result was “no binding”.
B8: the binding result is “no binding”.
B9: the binding result was “no binding”.
As to B10, the binding result is “no binding”.
As for B11, the binding result was “no binding”.
The same measure, in the same setting: to B12 belongs “no binding”; to B13, “no binding”.

The target of another experiment is T2, HCoV-229E spike antigens (bead panel). In words: multiplex bead assay.
On to B1, for which the binding result is given as “no binding”.
In the case of B2, the binding result is reported as “no binding”.
For the molecule B3, the binding result is “no binding”.
The same measure, in the same setting: with B4 the entry was “no binding”; with B5, “no binding”.
B6: the binding result is given as “no binding”.
The same measure, in the same setting: with B7 the entry was “no binding”; with B8, “no binding”; with B9, “no binding”.
B10: the binding result is reported as “no binding”.
On to B11, for which the binding result is on record as “no binding”.
Still for that read-out and setting: with B12 the entry was “no binding”; with B13, “no binding”.
